Results as given in article PMC5344670, “Cryo-EM structure of the ATP-sensitive potassium channel illuminates mechanisms of assembly and gating” (eLife, 2017).

Molecular target: the molecule itself
Assay: cryo-EM structure; digitonin-solubilised KATP channel complex in the presence of 1 mM ATP and 1 µM glibenclamide; single-particle analysis with C4 symmetry imposed

B1: rat Kir6.2 (natural protein)
chain: MLSRKGIIPEEYVLTRLAEDPTEPRYRTRERRARFVSKKGNCNVAHKNIREQGRFLQDVFTTLVDLKWPHTLLIFTMSFLCSWLLFAMVWWLIAFAHGDLAPGEGTNVPCVTSIHSFSSAFLFSIEVQVTIGFGGRMVTEECPLAILILIVQNIVGLMINAIMLGCIFMKTAQAHRRAETLIFSKHAVITLRHGRLCFMLRVGDLRKSMIISATIHMQVVRKTTSPEGEVVPLHQVDIPMENGVGGNSIFLVAPLIIYHVIDSNSPLYDLAPSDLHHHQDLEIIVILEGVVETTGITTQARTSYLADEILWGQRFVPIVAEEDGRYSVDYSKFGNTVKVPTPLCTARQLDEDRSLLDALTLASSRGPLRKRSVAVAKAKPKFSISPDSLS
notes: Kir6.2, rat, inwardly rectifying K+ channel family; the final model holds residues 32-356; The eLife digest calls it the mouse form; results and methods say rat; source: INS-1 cells clone 832/13 (rat insulinoma), co-infected with recombinant adenoviruses; purified with f-SUR1 (digitonin, anti-FLAG M2 agarose, FLAG peptide elution, size exclusion chromatography)
stoichiometry N: 4
